Where two headings read alike, the source gives them in different places.
B1: LC4t-Wild.1d (other)
chain: GPLGSEEVTIKVNLIFADGKTQTAEFKGTFEEATAEAYRYADLLAKVNGEYTADLEDGGYTINIKFAGK
notes: also called C4 domain
B2: LB5t-Wild.1d (B5 domain of PpL 312 with deletion of N-terminal region) (other)
chain: GPLGSEQVTIKENIYFEDGTVQTATFKGTFAEATAEAYRYADLLSKEHGKYTADLEDGGYTINIRFAG
B3: LB3t-Wild.1d (other)
chain: GPLGSEEVTIKANLIYADGKTQTAEFKGTFEEATAEAYRYADLLAKENGKYTVDVADKGYTLNIKFAG
notes: also called B3 domain
B4: LB4t-Wild.1d (other)
chain: GPLGSEEVTIKANLIYADGKTQTAEFKGTFAEATAEAYRYADLLAKENGKYTADLEDGGYTINIRFAG
notes: also called B4 domain
B5: LC1t-Wild.1d (other)
chain: GPLGSEEVTIKANLIFADGSTQNAEFKGTFAKAVSDAYAYADALKKDNGEYTVDVADKGLTLNIKFAGK
notes: also called C1 domain
B6: LB1t-Wild.1d (other)
chain: GPLGSEEVTIKANLIFANGSTQTAEFKGTFEKATSEAYAYADTLKKDNGEYTVDVADKGYTLNIKFAG
notes: also called B1 domain

Assays:
Assay in all cases: SPR (Biacore 3000), Fab immobilized on CM5, peptide as analyte, 1:1 fit, 25 C
[1] = molecular target: T1, aTNFa-Fab (Fab fragment of Infliximab) (Chimeric antibody/IgG1κ)
T1 construct: domain: Fab fragment; also called Infliximab Fab; Remicade Fab
Description: (§1) The IgG-Fab was immobilized on a sensor tip CM5 by amine coupling method using N-hydroxysuccinimide (NHS) and N-ethyl-N′-(3-dimethylaminopropyl)carbodiimide hydrochloride (EDC), and ethanolamine was used for blocking. All of the sensor tip and reagents for immobilization were manufactured by GE Healthcare Bioscience. The IgG-Fab solution was diluted to about 10 times by using a buffer for immobilization (10 mM CK₃COOH—CH₃CONa, pH 4.5), and the Fab was immobilized on the sensor tip in accordance with the protocol attached to the Biacore 3000. In addition, a reference cell as negative control was also prepared by activating another flow cell on the tip with EDC/NHS and then immobilizing human serum albumin manufactured by Wako Pure Chemical Corporation. […] Binding response curves at the time of addition (association phase, for 1 minute) and after the addition (dissociation phase, for 1 minute) were sequentially obtained at a measurement temperature of 25° C. After each measurement, about 20 mM NaOH was added for washing. With respect to the obtained binding response curve from which the binding response curve of the reference cell was subtracted, a fitting analysis was conducted by 1:1 binding model using a software included in the system, “BIA evaluation”, and an affinity constant (KA=kₒₙ/koff) for human IgG-Fab was calculated.

[2] = molecular target: T1, aTNFa-Fab (Fab fragment of Infliximab); remark: listed apart in the source
Description: as §1

[3] = molecular target: T1, aTNFa-Fab (Fab fragment of Infliximab); remark: listed apart in the source
Description: as §1

Binder | Ka [1] [M⁻¹] | koff [1] [s⁻¹] | kon [1] [M⁻¹ s⁻¹] | Ka [3] [M⁻¹] | koff [3] [s⁻¹] | kon [3] [M⁻¹ s⁻¹] | further results
B1 | 20000 | 0.397 | 10000 | – | – | – | –
B2 | – | – | – | – | – | – | Ka [2]: 700000 M⁻¹; koff [2]: 0.215 s⁻¹; kon [2]: 150000 M⁻¹ s⁻¹
B3 | – | – | – | 100000 | 0.305 | 20000 | –
B4 | – | – | – | 300000 | 0.239 | 70000 | –
B5 | 200000 | 0.152 | 20000 | – | – | – | –
B6 | – | – | – | 30000 | 0.481 | 10000 | –
